Literature values as cited in article PMC5120336.

Target: IRAK-4 kinase domain (Homo sapiens) (UniProt Q9NWZ3)

Sequence of IRAK-4 kinase domain (Q9NWZ3 154-460): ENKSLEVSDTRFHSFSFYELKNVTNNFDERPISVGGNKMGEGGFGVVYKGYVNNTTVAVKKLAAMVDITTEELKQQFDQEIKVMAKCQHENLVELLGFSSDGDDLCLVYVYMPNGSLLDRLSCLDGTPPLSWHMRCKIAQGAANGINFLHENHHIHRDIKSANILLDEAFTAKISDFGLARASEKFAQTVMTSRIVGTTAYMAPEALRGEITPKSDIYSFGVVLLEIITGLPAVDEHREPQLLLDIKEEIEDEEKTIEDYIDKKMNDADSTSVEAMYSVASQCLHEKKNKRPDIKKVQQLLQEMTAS

IRAK-4 kinase domain (from UniProt Q9NWZ3)
Kd: 2500 nM
